# Measurements published in US20110020359A1, “METHODS AND COMPOSITIONS FOR TREATING NEURONAL DAMAGE OR DEGENERATION” (California Institute of Technology, priority 2009, published 2011).
# What was measured:
# [1] = test system: dissociated rat P5-9 CGN cultures; experiment: Cerebellar granule neuron (CGN) neurite outgrowth assay; assay type: cell-based; conditions: PD98059 25; AG1478 15 nM; Y27632 5 μM; JNK inhibitor II 10 μM
# Method: Nitric acid-treated, 15-mm round German glass coverslips are coated with P-Orn in pH 6-8.5 borate buffer (at approximately 50 μg/ml) for about 1 hr at 37° C. and 5% CO2. CSPGs (at approximately 1 μg/ml) or polysaccharides enriched in the CS-A, CS-C, or CS-E sulfation motifs (at approximately 1 μg/ml) are coated on the P-Orn-coated coverslips overnight at 37° C. and 5% CO2. Cerebella from P5-9 Sprague Dawley rats are dissected, purified as described above, and cultured on the coated coverslips at a cell density of about 200 cells/mm^2. Neurons are grown in DMEM/F12, 1% FBS, and N1 supplement for about 24 hr.
# In one example, inhibitors against MEK (PD98059, 25 μM; Calbiochem), EGFR (AG1478, 15 nM; Calbiochem), ROCK (Y27632, 5 μM; Calbiochem) and JNK (JNK Inhibitor II, 10 μM; Calbiochem) are added in solution at the start of culturing, and neurons are grown for 24 hr. For neurite outgrowth experiments from p75 knockout mice, cerebella from P5-7 mice, either C57BL/6 wild-type or p75−/− knockout mice, are dissected and purified as described above. Neurons are plated at a density of 200-300 cells/mm2 and cultured for about 24 hr. Cells are then fixed in 4% PFA/10% sucrose, immunostained with neuronal specific anti-class III β-tubulin antibody (TUJ1; Covance), and evaluated for neurite outgrowth. Neurons are imaged using a Nikon TE2000-S fluorescent microscope and quantified using the NIH software Image J. Statistical analysis is performed using the one-way ANOVA; n=50-200 cells per experiment.
# P7 rat CGNs are grown for 24 hours on CS-E (1 μg/ml) in the presence of the CS-E antibody (CS-E Ab; 10 μg/ml).
# [2] = Surface plasmon resonance, binding to CS-E-enriched polysaccharides; conditions: SPR; read-out: dissociation constant (Kd)
# Method: Surface plasmon resonance experiments can be used to provide quantitative measurements of the binding kinetics or affinity between two or more molecules such as proteins, peptides, and small molecules. All experiments are performed on a Biacore T100 at 25° C. using a Sensor Chip CM5 with a running buffer composed of 0.01 M HEPES, pH 7.4, 0.15 M NaCl, 3 mM EDTA, 0.05% Surfactant P20 (HBS-EP^+). To analyze the binding of anti-CS-E antibody to the CS-E tetrasaccharide, both control and active flow cells are exposed to a 1:1 mixture of N-hydroxysuccinimide hydroxysuccinimide (NHS) and 1-ethyl-3,3-dimethylaminopropyl-carbodiimide (EDC) for 1-10 min at a flow rate of about 10 μL·min^−1. […] The kinetics of the anti-CS-E antibody/CS-E tetrasaccharide interaction is determined by approximately 300 s long injections of anti-CS-E antibody at about 30 μL·min^−1. The dissociation is monitored for about 900 s before the surface is regenerated with a 30 s injection of 6 M guanidine HCl. […] Affinity analysis is measured by injecting the antibody for about 3600 s at 5 μL·min^−1. […] The data is analyzed by plotting the response at equilibrium versus concentration and fitting the resulting curve to the Langmuir equation. […]
# In another example, utilizing the surface plasmon resonance methods described, data was generated to quantify measurements of the binding kinetics between CS-E and the binding partner EphA4. […]
# [3] = Carbohydrate microarray, binding to CS-E
# Method: The concentrations of the solutions range from 250 nM to 40 μM, and are calibrated to one another using the carbazole assay for uronic acid residue. A given concentration of each polysaccharide is spotted five to ten times at different positions on the array. A boundary is created around the polysaccharide spots on the slides using a hydrophobic slide marker (Super Pap Pen, Research Products International) and the slides are blocked with 5-10% fetal bovine serum (FBS) in PBS with gentle rocking at 37 ° C. for about 1 hr, followed by a brief rinse with PBS. Human NgR-Fc or mouse EphB2-Fc (R & D Systems) is reconstituted in 1% BSA in PBS, added to the bound region on the slides in 100 μl quantities at a concentration of 1-2 μM, and incubated at room temperature for about 3 hr. The slides are briefly rinsed three times with PBS, and then incubated with a goat anti-human IgG antibody conjugated to Cy3 (1:5000 in PBS) for 1 hr in the dark with gentle rocking. After rinsing two times with PBS and once with H2O, the microarray is analyzed at 532 nm using a GenePix 5000a scanner, and fluorescence quantification is performed using GenePix 6.0. Binding of the anti-CS-E antibody is evaluated using 100 μl of a 1 μg/ml (˜7 nM) solution of antibody and a goat anti-mouse IgG secondary antibody conjugated to Cy3 (1:5000 in PBS). […]
# [4] = Pull-down with biotinylated CS-E; assay type: binding; conditions: COS-7 cell lysates, immunoblot
# From the text: Pull down assays can be useful for identifying proteins which bind to CS (e.g. CS-A, CS-C, or CS-E). Pull down assays can also be used for identifying agents that disrupt the binding between CS and a known binding partner. Full-length human p75 cDNA (amino acids 1-427; Open Biosystems) is ligated into a pcDNA3 vector (Invitrogen), modified to fuse an HA tag to the 5′ end of the insert. Human NgR (amino acids 27-473; imaGenes) is ligated into a modified pAPtag-5 vector (GenHunter) which fuses a secretion signal sequence and a c-myc tag to the 3′ end of the insert. COS-7 cells are transfected with either NgR-myc, p75-HA, or both using the Lipofectamine (Invitrogen) method. Cells are lysed about 2 days after transfection with 0.5-2% Triton X-100 in PBS containing a protease inhibitor mixture (Roche) by rocking for 15-90 min at 4° C. The lysates are clarified by centrifugation at 5-25,000 rpm for 1-30 min.
# Biotin is attached to the free amino group of the residual core peptides of CS-C and CS-E polysaccharides (Seikagaku). […]
# Biotinylated CS-C or CS-E (approximately 280 μg each) in 100-500 μl of PBS is added to streptavidin agarose resin (about 140 μl; Pierce) and incubated at room temperature for about 1 hr. […] NgR-myc and p75-HA are detected by immunoblotting with myc-tag (Cell Signaling) or HA-tag (Sigma) antibodies.
molecule,measurement,setting,value
COc1cc2ncnc(Nc3cccc(Cl)c3)c2cc1OC [AG1478],rescue of CS-E- and CSPG-mediated inhibition of neurite outgrowth,[1],rescue
O=C1c2ccccc2-c2n[nH]c3cccc1c23 [JNK inhibitor II],rescue of CS-E- and CSPG-mediated inhibition of neurite outgrowth,[1],no effect
COc1cccc(-c2cc(=O)c3ccccc3o2)c1N [PD98059],rescue of CS-E- and CSPG-mediated inhibition of neurite outgrowth,[1],rescue
C[C@@H](N)[C@H]1CC[C@H](C(=O)Nc2ccncc2)CC1 [Y27632],rescue of CS-E- and CSPG-mediated inhibition of neurite outgrowth,[1],rescue
"EfnA3: Ephrin A3, ligand that activates Eph receptors (protein, UniProt P52797 23-214, looked up) Ephrin-A3: QGPGGALGNRHAVYWNSSNQHLRREGYTVQVNVNDYLDIYCPHYNSSGVGPGAGPGPGGGAEQYVLYMVSRNGYRTCNASQGFKRWECNRPHAPHSPIKFSEKFQRYSAFSLGYEFHAGHEYYYISTPTHNLHWKCLRMKVFVCCASTSHSGEKPVPTLPQFTMGPNVKINVLEDFEGENPQVPKLEKSISG",Kd,[2],65 nM
same,binding to CS-E-enriched polysaccharides on carbohydrate microarrays,[3],selectively bind
"EfnB1: Ephrin B1, ligand that activates Eph receptors (protein, UniProt P98172 28-346, looked up) Ephrin-B1: LAKNLEPVSWSSLNPKFLSGKGLVIYPKIGDKLDIICPRAEAGRPYEYYKLYLVRPEQAAACSTVLDPNVLVTCNRPEQEIRFTIKFQEFSPNYMGLEFKKHHDYYITSTSNGSLEGLENREGGVCRTRTMKIIMKVGQDPNAVTPEQLTTSRPSKEADNTVKMATQAPGSRGSLGDSDGKHETVNQEEKSGPGASGGSSGDPDGFFNSKVALFAAVGAGCVIFLLIIIFLTVLLLKLRKRHRKHTQQRAAALSLSTLASPKGGSGTAGTEPSDIIIPLRTTENNYCPHYEKVSGDYGHPVYIVQEMPPQSPANIYYKV",Kd,[2],138 nM
same,binding to CS-E-enriched polysaccharides on carbohydrate microarrays,[3],selectively bind
"myc-NgR1: full-length myc-tagged human NgR expressed in COS-7 cells (protein, UniProt Q9BZR6 1-473, looked up, full-length myc tag, full-length myc-tagged human NgR expressed in COS-7 cells) MKRASAGGSRLLAWVLWLQAWQVAAPCPGACVCYNEPKVTTSCPQQGLQAVPVGIPAASQRIFLHGNRISHVPAASFRACRNLTILWLHSNVLARIDAAAFTGLALLEQLDLSDNAQLRSVDPATFHGLGRLHTLHLDRCGLQELGPGLFRGLAALQYLYLQDNALQALPDDTFRDLGNLTHLFLHGNRISSVPERAFRGLHSLDRLLLHQNRVAHVHPHAFRDLGRLMTLYLFANNLSALPTEALAPLRALQYLRLNDNPWVCDCRARPLWAWLQKFRGSSSEVPCSLPQRLAGRDLKRLAANDLQGCAVATGPYHPIWTGRATDEEPLGLPKCCQPDAADKASVLEPGRPASAGNALKGRVPPGDSPPGNGSGPRHINDSPFGTLPGSAEPPLTAVRPEGSEPPGFPTSGPRRRPGCSRKNRTRSHCRLGQAGSGGGGTGDSEGSGALPSLTCSLTPLGLALVLWTVLGPC",pull-down by CS-E,[4],"Pull-down of full-length, native NgR by CS-E"
